Results from publication PMC5748111.

target: CaMKII (human CaMKIIδ, form used for the solution kinetics not stated) (human) (UniProt Q13557)
UniProt Q13557, sequence (Q13557 1-478, stated change not applied): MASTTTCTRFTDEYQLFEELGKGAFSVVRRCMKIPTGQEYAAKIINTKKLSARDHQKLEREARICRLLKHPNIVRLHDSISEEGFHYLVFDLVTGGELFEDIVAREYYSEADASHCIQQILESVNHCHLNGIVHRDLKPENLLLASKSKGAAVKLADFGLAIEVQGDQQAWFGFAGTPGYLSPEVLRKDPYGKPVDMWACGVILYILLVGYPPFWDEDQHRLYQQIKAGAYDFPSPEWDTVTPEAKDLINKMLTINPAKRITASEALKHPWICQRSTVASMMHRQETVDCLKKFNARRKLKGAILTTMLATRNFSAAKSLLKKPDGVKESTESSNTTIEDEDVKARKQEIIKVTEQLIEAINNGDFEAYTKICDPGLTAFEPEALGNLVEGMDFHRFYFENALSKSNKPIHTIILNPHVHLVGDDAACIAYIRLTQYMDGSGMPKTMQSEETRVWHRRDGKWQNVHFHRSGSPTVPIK

Binder | Km of peptide phosphorylation, standard solution kinetics [µM]
RNKLRRQHSYDTFVD [GluN2B_(S1303) peptide] | 4.6
GFCLIPQQSINEAIR [GluA1_(S849) peptide] | > 1000
PLARTLSVAGLPGKK [Syntide peptide] | 43.5
PGVRLLQDSVDFSLA [VimentinS83 peptide] | > 1000
